In article PMC3882236, “A Neutralization Epitope in the Hepatitis C Virus E2 Glycoprotein Interacts with Host Entry Factor CD81” (PLoS ONE, 2014):

Assays:
Assay in all cases: luciferase-based plate binding assay; supernatant (100 uL/well) with E2-16Fc or a mutant form held on protein A-coated 96-well plates, room temperature, 1 h; PBS-T wash; CD81-Luc supernatant (2.5x10^6 units of luciferase activity in 30 uL) added for 1 h, with or without 1H8 (10 or 50 ug/reaction); PBS-T rinse; bound luciferase activity read
Details in all cases: partners not purified
E2-16Fc Y527A = molecular target: T1, E2-16Fc Y527A (Hepatitis C virus genotype 1a, H77 …, UniProt P27958 384-661, Y527A)
T1 construct: HCV envelope glycoprotein E2, residues 384-661, HCV genotype 1a H77 strain, single site mutant of E2-16Fc; Same construct as m1 with one substitution; source: Huh7, transiently transfected, secreted into the cell culture medium (supernatant)

E2-16Fc T526A = molecular target: T2, E2-16Fc T526A (Hepatitis C virus genotype 1a, H77 …, UniProt P27958 384-661, T526A)
T2 construct: HCV envelope glycoprotein E2, residues 384-661, HCV genotype 1a H77 strain, single site mutant of E2-16Fc; Same construct as m1 with one substitution; source: Huh7, transiently transfected, secreted into the cell culture medium (supernatant)

E2-16Fc W529A = molecular target: T3, E2-16Fc W529A (Hepatitis C virus genotype 1a, H77 …, UniProt P27958 384-661, W529A)
T3 construct: HCV envelope glycoprotein E2, residues 384-661, HCV genotype 1a H77 strain, single site mutant of E2-16Fc; Same construct as m1 with one substitution; source: Huh7, transiently transfected, secreted into the cell culture medium (supernatant)

B1: CD81-Luc (large extracellular domain of human CD81, residues 113-201, fused with gaussia luciferase) (domain or fragment, UniProt P60033 113-201, looked up)
chain: FVNKDQIAKDVKQFYDQALQQAVVDDDANNAKAVVKTFHETLDCCGSSTLTALTTSVLKNNLCPSGSNIISNLFKEDCHQKIDDLFSGK
notes: human CD81, large extracellular domain, residues 113-201; source: Huh7, transiently transfected, secreted into the cell culture medium (supernatant)
With B1 the “percent reduction of binding compared to the wild-type E2-16Fc” value (“percent reduction of binding” below) (E2-16Fc Y527A) was 98.4%, the “percent reduction of binding” value (E2-16Fc T526A) was 83.1% and the “percent reduction of binding” value (E2-16Fc W529A) was 99.2%.
